Measurements: the DeepSol protein solubility set

Assay: soluble on expression in E. coli; label from the status in PepcDB or PDB records

Sequence | soluble on expression in E. coli
MSLELAQQWTQQRQALGERDDAMAALKTLDSSYAATTVFPPKGEVSLHERAGLYQGNEVNPPLAAAYRRELETQLLPRVARMLEAQIRGNMQNRERLLNSLRAYLMLNLRERRENGWLKDWVATDWSQRYAGNGTVQNGLNTHFARLLEQPFSYPLNETLVAQARQVLRSESLANVVYRVLREQARSLPEYRFGQHLGPQAGLFVGTDYVIPGFYTQQGYQQYFVVQGASLVNDILRDNWVLGEGSGISDMDLRRLMVELEQLYFRDYANFWSEAVGRLGLLPFNDAGEGADQVSGLLAANSPILQLLLEVRENTRFPVLAESAEALAEASDKAAEKGGKLGKAAAAAAGKARDALAKNLPDTAKKSLQRRFEPLHRLLDDNNGPAADLTPLLQALNELQLQLAGLARASQPEQEGHHHHHH | soluble
SAPGVPDARAIAAICEQLRQHVADLGVLYIKLHNYHWHIYGIEFKQVHELLEEYYVSVTEAFDTIAERLLQLGAQAPASMAEYLALSGIAEETEKEITIVSALARVKRDFEYLSTRFSQTQVLAAESGDAVTDGIITDILRTLGKAIWMLGATLKA | soluble
MPTIKDYYLPKRPTLLFSLHPEPTQAIINGTKILEYRRRFFARPFQAFVYTTGDNGGIQLFLRCDQGLQLVPEQLALVGALLQHDAPTTTAAYFEGAKAGLALPITAFTTLPNIPLAQLRRQFENFVTPRSYVFLDQPDRQAQLDWLLTQPCESLTILDWRKRYAALATLLQKLEHHHHHH | not soluble
MGSDKIHHHHHHMAETAPAPYFSEIARGPDQVEAHWLTTQDGQRIRAGLWRSHGPSAGTILLFPGRTEYIEKYGPLAIDLTDRGFDVLTVDWRGQGLADRSLSDGRLGHVAEFGAFQLDVAALVAHAEALNLPRPWYLLGHSMGGAIGLRALHEGLPVAACAFTAPMWAIRIPFALRPAARLLARFGTALGVSEKLVPTTTIEQYVQVTPFEGNTLTNDPEMYAFLQMQMTQHPELALGGPTVQWLSQAMLECADLRARPSPDVPCVTFLGENEQIVATEAIHDRMARWPSGKLEMIPDAQHEILMEIPQTRRQTCAILTAHFKKHV | not soluble
MNKELTFNDLPMVVAQLRDEVVGMKQMIVSLQSQNKPHKANTHIPMSVEEASAYLKMPMATLYMKLGNGSIPATKPGKRYCLYQDELDKWLETNRKNPVPLTAEEENAAILAGNKRKPKPLNW | not soluble
MGSDKIHHHHHHMIYNDRLGEVMDLNTLIKIIEKVGRIEIEDIKITADELIINIPSAPPIVIPQTPSIKEKLAEEGIIEIKDVPELDWEPPVEKYPGYIREVQFGKPKSEGGRGKVVKIGGQRALYRFEEPQPNPPVVTFDIFDIPMPGLPKPIRQFFQDVMEDPCEWAKKCVKEFGADMITIHHISTDPKIKDKSPKEAAKLMEDLLQAVDVPFVIGGSGNPQKDPLVLEACAEVAEGDRCLLASANLELDYKKIVDAAMKYDHNVLAWSIMDPNMARDLNRKLVEAGLDPNRIVMDPTTCALGYGIEFSINAMVRLRLNGLKGDELVNMPMSSGTTNAIGAREAWMNNPEWGPREYRLPLWEITTGITMMMCGVDLFMMLNPISVKTLKEIGKTLTTKPGEVKLNTNNYEWIVSP | not soluble
MGSDKIHHHHHHMELGTPIAEGNTAKIYLVENRVVKVFKGHLPDTEAANEARKQKYAHSCGLSVPEIFDVTEVNGKQAIMMEYINGKTMGEILFENKEQAEYYMSISVGIQHQIHSKVADSLEPMSEKLSRQIKAAPGLSNNQRSALLKRLETLSIDNRLCHGDFHLYNLIKTNNKVTIIDWVDASVGDMCADICRTYLLYSQFSAELADMYLHLSCKKRGLSQADIFQWAPIIAGARLSETVISEKAERLIEIVKHHFPR | not soluble
MGSDKIHHHHHHMAWHKLGRVYCADGFADWAQHSFMTPVPVQMSADVIRLYGGMRDDAGISRIGWVDLDAHNPLRVIAVCDAPALDLGEPGMFDDNGVILGDVIRTSEAELRMYYVGFQLVEKAKFLAFTGVAISDASGTRFDRVFPTPVLDRAPEALFINALHSIAQTETGFRAWISCGQRWQDINGRIYPQYNCWTVPSEDGLHFDMRDAVKIMDVNEAEYRIGRPRANRLADGSFELRVTSDTFDKHYSSHLAHSKDGIVFQRSDEVELPRGAPGDWDAEMTCYPARIDTPTGRSYLFYNGNNMGETGVGVAEWQAEA | not soluble
MGHHHHHHSHMEKNLLLTIESLYKNLRKANKAVDFTTVKFLLQDSRSLLHAFSTRSNYDGILPQTFAQVNNLLQTFAEVKTKLKPNSSENTVTKKQEGTSLKNSHNQEITVFSSSHLPQPSRHQEIWSILESVWITIYQNSTDVFQRLGSNSALTTSNIASFEEAFICLQKLMAAVRDILEGIQRILAPNSNYQDVETLYNFLIKYEVNKNVKFTAQEIYDCVSQTEYREKLTIGCRQLVEMEYTMQQCNASVYMEAKNRGWCEDMLNYRI | not soluble
MALMTMVQALNRALDEEMAKDPRVVVLGEDVGKRGGVFLVTEGLLQKYGPDRVMDTPLSEAAIVGAALGMAAHGLRPVAEIQFADYIFPGFDQLVSQVAKLRYRSGGQFTAPLVVRMPSGGGVRGGHHHSQSPEAHFVHTAGLKVVAVSTPYDAKGLLKAAIRDEDPVVFLEPKRLYRSVKEEVPEEDYTLPIGKAALRREGKDLTLIGYGTVMPEVLQAAAELAKAGVSAEVLDLRTLMPWDYEAVMNSVAKTGRVVLVSDAPRHASFVSEVAATIAEDLLDMLLAPPIRVTGFDTPYPYAQDKLYLPTVTRILNAAKRALDY | soluble
MSLKTITFFKRVLASAALVSVCGFACATNNGKQFIHNDTMEGGKLVCREIYAMNDAASGILNPVKMYKYSYDTDQQKTVKSTYAWNIFKNTWETESRTVISRYETETSVEYSVWNKEKGSFDLSKKYIYITDNNNQLIAQYAYKMNSRTNQWILEKDALTPIYENIYATTREGHHHHHH | soluble
MSEATTTLDGWYCLHDLRSIDWAAWKTLSSDERGQAVSEFLNVVEKWNEVATAKKGSHAMYTVVGQKADIMLMILRPTMEELNEIETELNKTTLAEYMVPAYSYVSVVELSNYLPADEDPYQNPQILARLYPELPKANHICFYPMDKRRQGDDNWYMLPMEERKKMMYSHSKIGRQYAGKVRQVISGSVGFDDFEWGVTLFADDVLQFKKLIYEMRFDEVSARYGEFGTFFVGNILPDEKVEKFLHI | not soluble
MKVRAIFLNFSVQLTPPSRLVILRNQSVFFSALLLNCPPLLPLPTEASPCYAVSESQPYARKQSCIITAARSAPSVDHIQVVLCRPHNSLLVCPSSHARSSTAVMATEDELRELLPKMRFNKEFKKKQKYQYKKRVEAREKEREIVTGKRRPASEQIQSASDGAKTKTTAAKKSGGAGRAGTKRKPKTRVPKLKVANVETGKETLTKKKARELVQENRKKKACAKKEPKLTAKSTRAGAATAAVVSSETLEGKQSKARVTKDELPATAAQAASSVEPTQTLTQAERDRELLARAIRGDDLLGSDAAAGVADDAAFIRQDPSLYPDHAFLDDYAEKKHAEAVSADELLQNAHHFFKKLSKQERALNKVAKEHINHLRAVNRRGGDKQGFRYVVPKNVKQVVRELLSAQKARDGDEDPETLVDTEQLVSTFGGDGVAETSEKPVRRSRRRRLRTYSDFYQFQVSRRWTRNAENFLKRSRSNKLLFEAKKHQRTIKHF | not soluble
MAHHHHHHMQFGIKVEPYGYDKLVWLETDALKVGLTNYAASVASIQVYHPADNKWIEVNCGYPKNPEEAYADPDYMGATVGRCAGRVAGGVFTLDGVKYYTQKNRGENTCHCGDDAYHKKHWGMKLIETANVIGVRFNYTSPHMESGFPGEVKNYCTFTIDRSKPNALKTIYDSYITDNSPCDASPINVFSHTSFNLNGIPGQQDGEKNWVQPESVRNHWLRVPASRVAEADRMAIPTGEFLSVEGTGLDFRQGRVIGDCIDDVALLDRDPCGYDHPLAIDGWEKGKLMLHAEAKSPVTNICMKVYSTFPCMWVYTANNKPLPASGGPGQRYARWTGLLVGPQNFSDVANHYPKYPSCIVRRGERQYSETTINEFTIEQ | soluble
MSLEQKILAQGALEAARRRQSEQEKALLLSQLKQLQSQMEPHFLFNTLANINALIAVEPYKAQLMLEKFTELLRGTMRLRRTNTGDLREEMQLIDAYLGIQKIRLGERLEYTLPELSELGTLGMPPMLIQPLVENAVSHGIEPKAEGGTIRVRIEVADDWFELSVEDNGMGLSDTPKGNGIALQNVRDRLSGLFGHEGLLTVAQNCSGGVTATLRIRLHHLQGLQRSFYDYSQARSPQSEGHHHHHH | soluble
GPGSMFHRAFVSSSDLTGCTIALSSVCTQKRYWAKPKKRPKVGQGFHEKAQKWREEYLLDRHRALADSLRAYVEFSTSKRVEPWDARFKPFDRIEKDGVYVLMRYMMEEKLQLCNYHHRPVKRLFCNIGLMGPQITTKARWKPYRFATNPAGTSKAERMYQRDKTVYTHGHND | not soluble
MRIMASHDTPVSPAGILIDLDGTVFRGNELIEGAREAIKTLRRMGKKIVFLSNRGNISRAMCRKKLLGAGIETDVNDIVLSSSVTAAFLKKHYRFSKVWVLGEQGLVDELRLAGVQNASEPKEADWLVISLHETLTYDDLNQAFQAAAGGARIIATNKDRSFPNEDGNAIDVAGMIGAIETSAQAKTELVVGKPSWLMAEAACTAMGLSAHECMIIGDSIESDIAMGKLYGMKSALVLTGSAKQGEQRLYTPDYVLDSIKDVTKLAEEGILILEHHHHHH | not soluble
MSLRKFMVLGYGEIGKLAIKHLLSHKVECIYLIVRDKSKASDLEGEIVEVLDFNEKNQVINEIDCIVSCTAAPHTVVRNEDIKTEGETIHIYDLAVPRDVDKELSEKERVILKDIDEISKIDDKNKKIRKERMEEYKHIVEESIDEFLNWLKIREVSSKIRNIKIRENEICSERIKTFSNKGNGENAKLAERMIKSTADAYVNRAIELLKSEALKGSDSYCAEIIEKIFLTEGHHHHHH | not soluble
MSFEQTLEKYAALAVNVGVNIQPGQTLSISAPLEAVQFVRLVTEKAYKSGAKHVYVDWNDETLTRLKFDLAPEEAFAEFPSWKAHAREELAKEGAAFMSIYAENPDLLKGVEASRIATAHKVAGEAMKVYRDYVQADKVSWCVISVPTKEWAAKVFPDVAPEEQEAKLWDAIFKATRADLENPVEAWKEHDETLHTKVDYLNEKHYKALHYTGPGTDLTIELPEKHVWAGAGSLNEKNVPFMANIPTEEVFTMPLKTGVNGQVSSTKPLVFAGNIIDNFTLTFENGRIVDYKAEAGEEALKHLVETDEGSHFLGEVALVPHDSPISNTNVLFYNTLFDENASCHLAIGNAYAFNLVGGKTMSKEELAENGANASITHNDFMIGSAELDIDGITADGRHEPIFRKGNWAF | not soluble
MSLPRRPTSSAREGDGGKRSGHTFAAVEAIGRALPDVEVTTAWGQPALKVHGKMFVCVASHKSAEPNSLVVMMAFADRDALVEDDPATYYLRKHYLNHPCVLVRLTRIRLDALRDLVVGAHRLVNVQMRSKSDIGSQGTSRPLRDRREGHHHHHH | soluble
MSLKEDFDLKTHIESSGHGVDTCLHVVLSSKVCRGYLVKMGGKIKSWKKRWFVFDRLKRTLSYYVDKHETKLKGVIYFQAIEEVYYDHLRSAAKKRFFRFTMVTESPNPALTFCVKTHDRLYYMVAPSAEAMRIWMDVIVTGAEGYTQFMNEGHHHHHH | not soluble
MAHHHHHHMNPHPVEPRDQIAELLVESPLFSFNCAHFIAFKGFRETLHGHNYNVSLRLRGNIQGDGYVIDFSILKEKVRKVCKQLDHHFILPMYSDVLNIQEVNDNFKITCEDNSEYSFPKRDCVQIPIKHSSTEEIGLYILNQLIEEIDLPFLKTRSVNYMEVTVSESPSQKATVHRNI | soluble
